The record followed here is patent US20090042248A1 (TARGETEX KFT, published 2009).

The target in the assay is T1, MASP-2 CCP1-CCP2-SP fragment (human, UniProt O00187 291-444; O00187 445-686).
T1 construct: range 291-444;range 445-686; also called MASP-2γB; MASP-2 catalytic fragment
Kind of assay: SDS-stable complex formation of 125I-labelled MASP fragment with C1-inhibitor; irreversible inhibition preceded by reversible complex formation, non-linear regression. The protocol:
To assess the rate of SDS stable complex formation between the MASP-1 and MASP-2 CCP1-CCP2-SP fragments and C1-inhibitor, the ¹²⁵I-labelled MASP fragments at concentrations ranging between 30-100 nM were incubated with 100-350 nM C1-inhibitor at 37° C. in 20 mM HEPES, 140 mM NaCl, pH 7.4 for 40 minutes. Typically 11-13 samples were taken at varying time periods. […] The samples were further incubated at 37° C. for 30 minutes and run on reducing SDS-PAGE. Cleavages rates were visualized by means of autoradiography and the diminution of the reacted MASP chain was quantified using a GEL DOC 1000 instrument and Molecular Analyst Software for densitometric calculations (Bio-Rad, Hercules, Calif., USA). The kinetic constants were calculated assuming irreversible inhibition proceeded by reversible enzyme-inhibitor complex formation. Using steady-state approximation and neglecting the starting enzyme concentration compared to the starting inhibitor concentration ([I₀]>>[E₀]) the data was regressed on the following equation using non-linear regression methods: [E]=[E₀]exp(−kobst); kobs=k₂[I₀]/(Kᵢ+[I₀]), where kobs is the observed pseudo-first order rate of reaction, k₂ is the rate of irreversible enzyme-inhibitor complex formation and Kᵢ is the inhibitory constant.

T1 sequence (O00187 291-444 limits assumed, form in doubt, chain 1 of 2): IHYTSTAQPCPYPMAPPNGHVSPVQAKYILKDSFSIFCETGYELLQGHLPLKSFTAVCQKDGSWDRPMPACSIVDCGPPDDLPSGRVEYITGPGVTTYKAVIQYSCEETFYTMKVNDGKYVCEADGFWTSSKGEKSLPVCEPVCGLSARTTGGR
T1 sequence (O00187 445-686 limits assumed, form in doubt, chain 2 of 2): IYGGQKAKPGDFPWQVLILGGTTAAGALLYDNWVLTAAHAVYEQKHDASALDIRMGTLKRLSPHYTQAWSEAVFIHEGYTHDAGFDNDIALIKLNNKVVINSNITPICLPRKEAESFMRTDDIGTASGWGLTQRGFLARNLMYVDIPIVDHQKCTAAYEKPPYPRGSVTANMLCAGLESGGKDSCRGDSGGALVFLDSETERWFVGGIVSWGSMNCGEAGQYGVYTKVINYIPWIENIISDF

B1: C1-inhibitor (other, human, UniProt P05155 23-500, looked up)
chain: NPNATSSSSQDPESLQDRGEGKVATTVISKMLFVEPILEVSSLPTTNSTTNSATKITANTTDEPTTQPTTEPTTQPTIQPTQPTTQLPTDSPTQPTTGSFCPGPVTLCSDLESHSTEAVLGDALVDFSLKLYHAFSAMKKVETNMAFSPFSIASLLTQVLLGAGENTKTNLESILSYPKDFTCVHQALKGFTTKGVTSVSQIFHSPDLAIRDTFVNASRTLYSSSPRVLSNNSDANLELINTWVAKNTNNKISRLLDSLPSDTRLVLLNAIYLSAKWKTTFDPKKTRMEPFHFKNSVIKVPMMNSKKYPVAHFIDQTLKAKVGQLQLSHNLSLVILVPQNLKHRLEDMEQALSPSVFKAIMEKLEMSKFQPTLLTLPRIKVTTSQDMLSIMEKLEFFDFSYDLNLCGLTEDPDLQVSAMQHQTVLELTETGVEAAAASAISVARTLLVFEVQQPFLFVLWDQQHKFPVFMGRVYDPRA
notes: mature; Serum-purified, glycosylated; molecular weight of 71.1 kDa used
Consider B1, for which the Ki was determined as 8.8 nM.
